Biological target: 4-1BB-Fc (human, UniProt Q07011)
Experiment: BLI, 24C, avidity

Sequence of 4-1BB-Fc (Q07011 24-186): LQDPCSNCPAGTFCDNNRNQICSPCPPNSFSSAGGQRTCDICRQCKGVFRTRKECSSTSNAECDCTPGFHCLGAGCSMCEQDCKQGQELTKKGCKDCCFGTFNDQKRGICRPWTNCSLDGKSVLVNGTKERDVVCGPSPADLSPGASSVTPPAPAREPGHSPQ

B1: D2 (4-1BBL trimer-Fc) (protein)
chain: KEITNALETWGALGQDINLDIPSFQMSDDIDDIKWEKTSDKKKIAQFRKEKETFKEKDTYKLFKNGTLKIKHLKTDDQDIYKVSIYDTKGKNVLEKIFDLKIQERVSKPKISWTCINTTLTCEVMNGTDPELNLYQDGKHLKLSQRVITHKWTTSLSAKFKCTAGNKVSKESSVEPVSCPEKGLDIYLIIGICGGGSLLMVFVALLVFYITKRKKQRSRRNDEELETRAHRVATEERGRKPHQIPASTPQNPATSQHPPPPPGHRSQAPSHRPPPPGHRVQHQPQKRPPAPSGTQVHQQKGPPLPRPRVQPKPPHGAAENSLSPSSN
B1 was tested. Which Kd did it give?
Its Kd is 0.02 nM.

Reference: patent publication US20260347469 (published 2026)
